Sequences and labels used below:
B1: CE115HA000 V11L/D72A/L78I/D101Q with GGS inserted between Kabat 99 and 100 (antibody)
heavy: QVQLVESGGGLVQPGRSLRLSCAASGFTFSNAWMHWVRQAPGKGLEWVAQIKAKSNNYATYYAESVKGRFTISRADSKNSIYLQMNSLKTEDTAVYYCRYVHYGAGGSYYGVQAWGQGTTVTVSSASTKGPSVFPLAPSSKSTSGGTAALGCLVKDYFPEPVTVSWNSGALTSGVHTFPAVLQSSGLYSLSSVVTVPSSSLGTQTYICNVNHKPSNTKVDKKVEPKSCDKTHTCPPCPAPEAAGGPSVFLFPPKPKDTLMISRTPEVTCVVVDVSHEDPEVKFNWYVDGVEVHNAKTKPREEQYASTYRVVSVLTVLHQDWLNGKEYKCKVSNKALPAPIEKTISKAKGQPREPQVYTLPPSRCELTKNQVSLSCAVKGFYPSDIAVEWESNGQPENNYKTTPPVLDSDGSFFLVSKLTVDKSRWQQGNVFSCSVMHEALHNHYTQKSLSLSPDYKDDDDK
Fc: EPKSSDKTHTCPPCPAPELLGGPSVFLFPPKPKDTLMISRTPEVTCVVVDVSHEDPEVKFNWYVDGVEVHNAKTKPREEQYNSTYRVVSVLTVLHQDWLNGKEYKCKVSNKALPAPIEKTISKAKGQPREPQVCTLPPSRDELTKNQVSLWCLVKGFYPSDIAVEWESNGQPENNYKTTPPVLDSDGSFFLYSKLTVDKSRWQQGNVFSCSVMHEALHNRYTQKSLSLSP
light: DIVMTQSPLSLPVTPGEPASISCRSSQSLVHSNRNTYLHWYQQKPGQAPRLLIYKVSNRFSGVPDRFSGSGSGTDFTLKISRVEAEDVGVYYCGQGTQVPYTFGQGTKLEIKRTVAAPSVFIFPPSDEQLKSGTASVVCLLNNFYPREAKVQWKVDNALQSGNSQESVTEQDSKDSTYSLSSTLTLSKADYEKHKVYACEVTHQGLSSPVTKSFNRGEC
notes: one-arm antibody
B2: CE115HA000 V11L/D72A/L78I/D101Q, no insertion (antibody, human IgG1, kappa, L234A L235A, N297A, name in Kabat numbering)
heavy: QVQLVESGGGLVQPGRSLRLSCAASGFTFSNAWMHWVRQAPGKGLEWVAQIKAKSNNYATYYAESVKGRFTISRADSKNSIYLQMNSLKTEDTAVYYCRYVHYGAYYGVQAWGQGTTVTVSSASTKGPSVFPLAPSSKSTSGGTAALGCLVKDYFPEPVTVSWNSGALTSGVHTFPAVLQSSGLYSLSSVVTVPSSSLGTQTYICNVNHKPSNTKVDKKVEPKSCDKTHTCPPCPAPEAAGGPSVFLFPPKPKDTLMISRTPEVTCVVVDVSHEDPEVKFNWYVDGVEVHNAKTKPREEQYASTYRVVSVLTVLHQDWLNGKEYKCKVSNKALPAPIEKTISKAKGQPREPQVYTLPPSRCELTKNQVSLSCAVKGFYPSDIAVEWESNGQPENNYKTTPPVLDSDGSFFLVSKLTVDKSRWQQGNVFSCSVMHEALHNHYTQKSLSLSPDYKDDDDK
chain: EPKSSDKTHTCPPCPAPELLGGPSVFLFPPKPKDTLMISRTPEVTCVVVDVSHEDPEVKFNWYVDGVEVHNAKTKPREEQYNSTYRVVSVLTVLHQDWLNGKEYKCKVSNKALPAPIEKTISKAKGQPREPQVCTLPPSRDELTKNQVSLWCLVKGFYPSDIAVEWESNGQPENNYKTTPPVLDSDGSFFLYSKLTVDKSRWQQGNVFSCSVMHEALHNRYTQKSLSLSP
light: DIVMTQSPLSLPVTPGEPASISCRSSQSLVHSNRNTYLHWYQQKPGQAPRLLIYKVSNRFSGVPDRFSGSGSGTDFTLKISRVEAEDVGVYYCGQGTQVPYTFGQGTKLEIKRTVAAPSVFIFPPSDEQLKSGTASVVCLLNNFYPREAKVQWKVDNALQSGNSQESVTEQDSKDSTYSLSSTLTLSKADYEKHKVYACEVTHQGLSSPVTKSFNRGEC
B3: CE115HA000 / GLS3000 one-arm antibody (antibody, human IgG1, kappa, L234A L235A, N297A)
heavy: QVQLVESGGGVVQPGRSLRLSCAASGFTFSNAWMHWVRQAPGKGLEWVAQIKAKSNNYATYYAESVKGRFTISRDDSKNSLYLQMNSLKTEDTAVYYCRYVHYGAYYGVDAWGQGTTVTVSSASTKGPSVFPLAPSSKSTSGGTAALGCLVKDYFPEPVTVSWNSGALTSGVHTFPAVLQSSGLYSLSSVVTVPSSSLGTQTYICNVNHKPSNTKVDKKVEPKSCDKTHTCPPCPAPEAAGGPSVFLFPPKPKDTLMISRTPEVTCVVVDVSHEDPEVKFNWYVDGVEVHNAKTKPREEQYASTYRVVSVLTVLHQDWLNGKEYKCKVSNKALPAPIEKTISKAKGQPREPQVYTLPPSRCELTKNQVSLSCAVKGFYPSDIAVEWESNGQPENNYKTTPPVLDSDGSFFLVSKLTVDKSRWQQGNVFSCSVMHEALHNHYTQKSLSLSPDYKDDDDK
chain: EPKSSDKTHTCPPCPAPELLGGPSVFLFPPKPKDTLMISRTPEVTCVVVDVSHEDPEVKFNWYVDGVEVHNAKTKPREEQYNSTYRVVSVLTVLHQDWLNGKEYKCKVSNKALPAPIEKTISKAKGQPREPQVCTLPPSRDELTKNQVSLWCLVKGFYPSDIAVEWESNGQPENNYKTTPPVLDSDGSFFLYSKLTVDKSRWQQGNVFSCSVMHEALHNRYTQKSLSLSP
light: DIVMTQSPLSLPVTPGEPASISCRSSQSLVHSNRNTYLHWYQQKPGQAPRLLIYKVSNRFSGVPDRFSGSGSGTDFTLKISRVEAEDVGVYYCGQGTQVPYTFGQGTKLEIKRTVAAPSVFIFPPSDEQLKSGTASVVCLLNNFYPREAKVQWKVDNALQSGNSQESVTEQDSKDSTYSLSSTLTLSKADYEKHKVYACEVTHQGLSSPVTKSFNRGEC
notes: one-arm antibody

The target in this test is T1, CD3ε homodimer protein (human, UniProt P07766 23-126, limits assumed).
T1 construct: also called human CD3ε homodimer protein; CD3e homodimer
T1 sequence (P07766 23-126 limits assumed): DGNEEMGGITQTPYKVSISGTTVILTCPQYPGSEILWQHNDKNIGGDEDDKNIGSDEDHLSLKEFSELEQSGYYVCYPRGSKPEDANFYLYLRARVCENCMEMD
Put plainly: SPR (Biacore); CD3ε homodimer immobilized, one-arm antibody as analyte. For orientation: Surface plasmon resonance follows binding to a sensor surface in real time, without labels.
As to B1, the dissociation constant (Kd) (usually the concentration at which binding is half-saturated) came out at 63.1 nM.

The molecule B2 gave an equilibrium dissociation constant (Kd) of 6.96 nM.

Regarding B3, binding was put at a Kd of 110 nM.

The values are drawn from patent US20220040297A1 (Chugai, published 2022).
